The record followed here is article PMC5960627.

Read-outs that look alike come from different tables or passages of the source.

Experiment in all cases: other fluorescence titration
The target in assay [1] is BSAT1R_(309-327), FRET biosensor with AT1R a.a. 309-327 (SMD4JM) between EYFPc and ECFP (human).
In assay [2] the target is BSAT1R_(125-141mut), FRET biosensor with mutant AT1R a.a. 125-141 (SMD2) between EYFPc and ECFP (human).
Assay [3] concerns the target BSAT1R_(215-242mut), FRET biosensor with mutant AT1R a.a. 215-242 (SMD3) between EYFPc and ECFP (human).
Assay [4] deals with BSAT1R_(215-242), FRET biosensor with AT1R a.a. 215-242 (entire SMD3) between EYFPc and ECFP (human).
Chain of BSAT1R_(215-242), FRET biosensor with AT1R a.a. 215-242 (entire SMD3) between EYFPc and ECFP (human) (P30556 215-242): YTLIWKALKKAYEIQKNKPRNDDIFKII
The target of assay [5] is BSAT1R_(125-141), FRET biosensor with AT1R a.a. 125-141 (SMD2) between EYFPc and ECFP (human).
Assay [6] concerns the target BSAT1R_(309-327mut), FRET biosensor with mutant AT1R a.a. 309-327 (SMD4JM) between EYFPc and ECFP (human).
In assay [7] the target is BSAT1R_(215-232), FRET biosensor with AT1R a.a. 215-232 (part of SMD3) between EYFPc and ECFP (human).
Assay [8] concerns the target BSAT1R_(309-327), FRET biosensor with AT1R a.a. 309-327 (SMD4JM) between EYFPc and ECFP (human). This is another data set of the same source.

Regarding “Calmodulin (from UniProt P0DP23 1-149) (natural protein)”, the EC50(Ca2+) of the interaction, species Sp2 in assay [1] is 3180 nM; in assay [8], 3170 nM. Moreover, the EC50(Ca2+) of the interaction in assay [2] worked out at 17600 nM; in assay [3] it was 1490 nM; in assay [4] it was 150 nM; in assay [5], 4100 nM; in assay [7] it was 300 nM. This substance also yielded an EC50(Ca2+) of the interaction, species Sp1mut in assay [6] of 770 nM. Further, in assay [6], the EC50(Ca2+) of the interaction, species Sp2mut turned out to be 9600 nM. The same substance returned an EC50(Ca2+) of the interaction, species Sp1 in assay [8] of 310 nM.
